Reference: publication PMC8191316, “Structural basis for CD97 recognition of the decay-accelerating factor CD55 suggests mechanosensitive activation of adhesion GPCRs” (The Journal of Biological Chemistry, 2021)
One block for each molecule: values may come before it.

B6: CD55 SCR1–4 domains (35–285), His-tagged (domain or fragment)
chain: DCGLPPDVPNAQPALEGRTSFPEDTVITYKCEESFVKIPGEKDSVICLKGSQWSDIEEFCNRSCEVPTRLNSASLKQPYITQNYFPVGTVVEYECRPGYRREPSLSPKLTCLQNLKWSTAVEFCKKKSCPNPGEIRNGQIDVPGGILFGATISFSCNTGYKLFGSTSSFCLISGSSVQWSDPLPECREIYCPAPPQIDNGIIQGERDHYGYRQSVTYACNKGFTMIGEHSIYCTVNNDEGEWSGPPPECRG

Columns and labels:
[1] = target: CD55 SCR1–4 domains (35–285), His-tagged (human) (UniProt P08174); assay: SPR; Biacore T200; His-tagged CD55 immobilized on nickel coated NTA chip; CD97 (WT, mutants) or EMR2 without His-tag injected at 50 μl/min for 2 min; 20 mM Tris, pH 7.5, 200 mM NaCl, 2 mM CaCl2, 0.05% Tween 20
[2] = target: B6; assay: SPR
[3] = target: T1, CD55 SCR1–4 domains (35–285), His-tagged (human, UniProt P08174 35-285); assay: SPR; Biacore T200; His-tagged CD55 immobilized on nickel coated NTA chip; CD97 (WT, mutants) or EMR2 without His-tag injected at 50 μl/min for 2 min; 20 mM Tris, pH 7.5, 200 mM NaCl, 2 mM CaCl2, 0.05% Tween 20; details: both partners purified
T1 construct: CD55 (complement decay-accelerating factor), human, UniProt P08174, SCR1–4 domains, residues 35–285; Vector pLEXm with N-terminal signal peptide; codon-optimized gene; In the crystal and SAXS rows it stood as the C-terminal part of the chimera m9; also called decay-accelerating factor; not shown: His6, C-terminal, kept
T1 sequence (looked up): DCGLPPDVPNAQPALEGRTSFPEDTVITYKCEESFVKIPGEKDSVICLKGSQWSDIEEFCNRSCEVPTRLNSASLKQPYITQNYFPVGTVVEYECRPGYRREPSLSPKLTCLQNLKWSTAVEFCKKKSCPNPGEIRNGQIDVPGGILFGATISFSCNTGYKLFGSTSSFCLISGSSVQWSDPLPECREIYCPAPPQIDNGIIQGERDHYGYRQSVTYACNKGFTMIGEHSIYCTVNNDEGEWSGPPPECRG

[4] = target: T2, CD97 EGF_(1,2,5) fragment D81A, without His-tag (human, UniProt P48960-2 21-165, D81A); assay: SPR
T2 sequence: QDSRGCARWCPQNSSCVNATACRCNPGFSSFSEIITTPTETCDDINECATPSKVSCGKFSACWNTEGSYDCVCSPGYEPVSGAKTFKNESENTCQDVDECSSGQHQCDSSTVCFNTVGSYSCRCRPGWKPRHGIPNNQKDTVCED

[5] = target: T3, CD97 EGF_(1,2,5) fragment D63L, without His-tag (human, UniProt P48960-2 21-165, D63L); assay: SPR
T3 sequence: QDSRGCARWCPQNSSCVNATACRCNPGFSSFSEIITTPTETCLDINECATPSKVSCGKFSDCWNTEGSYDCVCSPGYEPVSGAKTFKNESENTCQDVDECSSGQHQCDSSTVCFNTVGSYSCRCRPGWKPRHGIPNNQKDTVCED

[6] = target: T4, CD97 EGF_(1,2,5) fragment V137A, without His-tag (human, UniProt P48960-2 21-165, V137A); assay: SPR
T4 sequence: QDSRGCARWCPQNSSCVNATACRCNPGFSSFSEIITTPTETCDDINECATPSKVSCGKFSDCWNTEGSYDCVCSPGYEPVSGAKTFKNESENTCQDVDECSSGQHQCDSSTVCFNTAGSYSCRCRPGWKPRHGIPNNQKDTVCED

[7] = target: T5, CD97 EGF_(1,2,5) fragment E86A, without His-tag (human, UniProt P48960-2 21-165, E86A); assay: SPR
T5 sequence: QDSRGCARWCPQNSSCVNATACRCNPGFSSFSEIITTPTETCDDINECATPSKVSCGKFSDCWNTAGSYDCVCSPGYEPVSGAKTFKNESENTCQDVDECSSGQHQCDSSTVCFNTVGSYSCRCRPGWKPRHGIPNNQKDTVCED

Molecule: CD97 EGF_(1,2,5) fragment, WT, without His-tag (SPR construct with TEV site) (from UniProt P48960-2 21-165) (domain or fragment)
Kd [1]: 3.2 µM | koff [1]: 0.00173 s⁻¹ | kon [1]: 546 M⁻¹ s⁻¹

B2: CD97 EGF_(1,2,5) fragment D63L, without His-tag (domain or fragment, human, UniProt P48960-2 21-165, looked up)
chain: QDSRGCARWCPQNSSCVNATACRCNPGFSSFSEIITTPTETCLDINECATPSKVSCGKFSDCWNTEGSYDCVCSPGYEPVSGAKTFKNESENTCQDVDECSSGQHQCDSSTVCFNTVGSYSCRCRPGWKPRHGIPNNQKDTVCED
notes: CD97, human, EGF_(1,2,5) isoform fragment, residues 21–165, with D63L; Made by overlapping PCR, cloned to the same vector as m3; not shown: His6, C-terminal, cleaved
Kd [3]: 85.2 µM

B5: CD97 EGF_(1,2,5) fragment D81A, without His-tag (domain or fragment, human, UniProt P48960-2 21-165, looked up)
chain: QDSRGCARWCPQNSSCVNATACRCNPGFSSFSEIITTPTETCDDINECATPSKVSCGKFSACWNTEGSYDCVCSPGYEPVSGAKTFKNESENTCQDVDECSSGQHQCDSSTVCFNTVGSYSCRCRPGWKPRHGIPNNQKDTVCED
notes: CD97, human, EGF_(1,2,5) isoform fragment, residues 21–165, with D81A; Made by overlapping PCR, cloned to the same vector as m3; not shown: His6, C-terminal, cleaved
Kd [3]: 66.4 µM

Molecule: B6
koff [4]: 0.00122 s⁻¹ | koff [5]: 0.000968 s⁻¹ | koff [6]: 0.00163 s⁻¹ | koff [7]: 0.00141 s⁻¹

Continued, values first:

koff [2]: 0.00149 s⁻¹ | Kd [1]: 43 µM
B1: EMR2 EGF_(1,2,5) (24–168) fragment, His6 removed (domain or fragment)
chain: QDSRGCARWCPQDSSCVNATACRCNPGFSSFSEIITTPMETCDDINECATLSKVSCGKFSDCWNTEGSYDCVCSPGYEPVSGAKTFKNESENTCQDVDECSSGQHQCDSSTVCFNTVGSYSCRCRPGWKPRHGIPNNQKDTVCED

Kd [3]: 25.3 µM
B3: CD97 EGF_(1,2,5) fragment V137A, without His-tag (domain or fragment, human, UniProt P48960-2 21-165, looked up)
chain: QDSRGCARWCPQNSSCVNATACRCNPGFSSFSEIITTPTETCDDINECATPSKVSCGKFSDCWNTEGSYDCVCSPGYEPVSGAKTFKNESENTCQDVDECSSGQHQCDSSTVCFNTAGSYSCRCRPGWKPRHGIPNNQKDTVCED
notes: CD97, human, EGF_(1,2,5) isoform fragment, residues 21–165, with V137A (in EGF5); Made by overlapping PCR, cloned to the same vector as m3; also called V137A mutant; not shown: His6, C-terminal, cleaved

Kd [3]: 17.6 µM
B4: CD97 EGF_(1,2,5) fragment E86A, without His-tag (domain or fragment, human, UniProt P48960-2 21-165, looked up)
chain: QDSRGCARWCPQNSSCVNATACRCNPGFSSFSEIITTPTETCDDINECATPSKVSCGKFSDCWNTAGSYDCVCSPGYEPVSGAKTFKNESENTCQDVDECSSGQHQCDSSTVCFNTVGSYSCRCRPGWKPRHGIPNNQKDTVCED
notes: CD97, human, EGF_(1,2,5) isoform fragment, residues 21–165, with E86A; Made by overlapping PCR, cloned to the same vector as m3; not shown: His6, C-terminal, cleaved
